# Data reported in paper PMC5560056 (Molecular cell, 2016).
# Residue numbers refer to the chain shown, from its start. Like-named read-outs stand apart in the source and are kept apart here.
# T1: recombinant human Pds5B_(1–1120) (human, UniProt Q9NTI5 1-1120)
# T1 sequence (looked up): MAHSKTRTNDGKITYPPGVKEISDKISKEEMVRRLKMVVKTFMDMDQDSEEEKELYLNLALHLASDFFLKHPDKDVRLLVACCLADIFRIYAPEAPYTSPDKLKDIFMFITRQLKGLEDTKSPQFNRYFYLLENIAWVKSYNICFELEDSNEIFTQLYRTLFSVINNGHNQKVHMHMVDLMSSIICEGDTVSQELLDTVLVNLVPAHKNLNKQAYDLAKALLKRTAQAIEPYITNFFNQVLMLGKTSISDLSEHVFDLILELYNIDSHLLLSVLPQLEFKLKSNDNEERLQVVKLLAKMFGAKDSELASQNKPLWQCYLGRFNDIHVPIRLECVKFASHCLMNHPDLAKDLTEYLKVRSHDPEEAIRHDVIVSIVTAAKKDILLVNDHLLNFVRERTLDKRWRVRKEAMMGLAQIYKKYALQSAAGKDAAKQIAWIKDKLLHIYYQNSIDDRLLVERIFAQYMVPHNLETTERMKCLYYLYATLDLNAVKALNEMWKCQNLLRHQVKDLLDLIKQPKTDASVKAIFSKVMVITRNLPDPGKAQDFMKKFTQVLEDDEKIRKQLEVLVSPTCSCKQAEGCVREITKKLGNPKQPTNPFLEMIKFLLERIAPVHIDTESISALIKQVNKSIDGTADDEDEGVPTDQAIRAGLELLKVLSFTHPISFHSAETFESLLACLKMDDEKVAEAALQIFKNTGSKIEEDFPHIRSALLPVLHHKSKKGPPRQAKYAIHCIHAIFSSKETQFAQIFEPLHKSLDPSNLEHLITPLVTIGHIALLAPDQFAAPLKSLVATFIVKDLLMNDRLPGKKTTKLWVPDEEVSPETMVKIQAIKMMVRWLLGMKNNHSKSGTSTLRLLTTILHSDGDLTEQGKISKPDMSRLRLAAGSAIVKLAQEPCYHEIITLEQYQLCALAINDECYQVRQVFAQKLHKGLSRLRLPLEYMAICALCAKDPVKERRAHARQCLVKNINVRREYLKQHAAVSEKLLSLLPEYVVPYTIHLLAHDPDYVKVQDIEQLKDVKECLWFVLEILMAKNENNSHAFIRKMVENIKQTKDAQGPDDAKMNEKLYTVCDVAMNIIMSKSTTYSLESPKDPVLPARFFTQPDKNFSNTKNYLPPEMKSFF
# T2: recombinant human Pds5B_(21–1120) (human, UniProt Q9NTI5 21-1120)
# T2 sequence (looked up): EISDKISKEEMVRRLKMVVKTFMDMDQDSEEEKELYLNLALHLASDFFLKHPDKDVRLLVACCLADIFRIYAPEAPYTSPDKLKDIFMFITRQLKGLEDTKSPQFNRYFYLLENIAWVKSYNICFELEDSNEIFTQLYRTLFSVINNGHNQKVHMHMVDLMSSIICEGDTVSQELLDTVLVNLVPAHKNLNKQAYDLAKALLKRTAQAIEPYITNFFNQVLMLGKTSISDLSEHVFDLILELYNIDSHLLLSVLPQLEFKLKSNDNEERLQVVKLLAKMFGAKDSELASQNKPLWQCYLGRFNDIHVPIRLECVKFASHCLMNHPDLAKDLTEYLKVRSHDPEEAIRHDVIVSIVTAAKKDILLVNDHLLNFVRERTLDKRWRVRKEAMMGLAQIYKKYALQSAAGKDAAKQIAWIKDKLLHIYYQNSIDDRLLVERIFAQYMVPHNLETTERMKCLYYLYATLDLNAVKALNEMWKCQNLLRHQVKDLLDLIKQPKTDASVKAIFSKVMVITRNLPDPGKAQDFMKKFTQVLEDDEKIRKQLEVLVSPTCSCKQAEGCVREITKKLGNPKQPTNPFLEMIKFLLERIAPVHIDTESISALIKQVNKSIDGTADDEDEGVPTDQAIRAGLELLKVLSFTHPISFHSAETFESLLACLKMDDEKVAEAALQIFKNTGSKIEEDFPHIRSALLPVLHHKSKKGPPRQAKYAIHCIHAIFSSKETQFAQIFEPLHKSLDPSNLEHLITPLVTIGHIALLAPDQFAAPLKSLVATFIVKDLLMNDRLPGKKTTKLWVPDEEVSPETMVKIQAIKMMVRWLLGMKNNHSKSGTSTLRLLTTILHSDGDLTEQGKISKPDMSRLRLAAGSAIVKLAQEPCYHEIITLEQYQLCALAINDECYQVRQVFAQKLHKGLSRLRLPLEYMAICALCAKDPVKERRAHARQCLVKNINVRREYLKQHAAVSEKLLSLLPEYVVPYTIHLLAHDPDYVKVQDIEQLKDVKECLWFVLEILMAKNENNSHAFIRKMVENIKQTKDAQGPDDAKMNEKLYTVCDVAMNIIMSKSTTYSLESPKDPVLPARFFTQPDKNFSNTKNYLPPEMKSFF
# T3: selenomethionine-containing Pds5B_(21–1120) (human, UniProt Q9NTI5 21-1120, selenomethionine-containing)
# T3 sequence (looked up): T2 sequence (looked up)
# T4: recombinant human Pds5B_(21–1120) Y445A/N447A (human, UniProt Q9NTI5 21-1120, Y445A | N447A)
# T4 sequence (looked up): T2 sequence (looked up) with Y425A, N427A
# B1: recombinant purified Scc1_(76–150) (domain or fragment, human, UniProt O60216 76-150, looked up)
# chain: ADCNEAFIKIKMAFRPGVVDLPEENREAAYNAITLPEEFHDFDQPLPDLDDIDVAQQFSLNQSRVEEITMREEVG
# B2: GST-Scc1_(76–150) (domain or fragment, human, UniProt O60216 76-150, looked up)
# chain: B1 chain
# Key:
# [1] = target: T1, recombinant human Pds5B_(1–1120); experiment: pull-down
# [2] = target: T2, recombinant human Pds5B_(21–1120); experiment: ITC
# [3] = target: T3, selenomethionine-containing …; experiment: crystal structure
# [4] = target: T1, recombinant human Pds5B_(1–1120); experiment: pull-down; remark: listed apart in the source
# [5] = target: T4, recombinant human Pds5B_(21–1120) …; experiment: pull-down
binder,measurement,setting,value
"DARDLEMSKKVRRSYSRLETLGSASTSTPGRRSCFGFEGL (peptide, UniProt Q96FF9 132-171, looked up) [synthetic Sororin peptide (residues 132–171)]",binding result,[1],binds
B1,Kd,[2],4.3 nM
"MTSRFGKTYSRKGGNGSSKFDEVFSNKRTTLST (peptide, UniProt Q7Z5K2 1-33, looked up) [synthetic Wapl_(1–33) peptide]",binding result,[3],binds
"LDARDLEMSKKVRRSYSRLETLGSASTSTPGRRSCFGFEGL (domain or fragment, human, UniProt Q96FF9 131-171, looked up) [Sororin residues 131–171]",binding result,[4],binds
B2,binding result,[5],binds
